The values below come from IntAct's records for PubMed 22927646.

The labels stand for the following.
B1: Isoform 2 of Acid ceramidase (Homo sapiens), Q13510-2 (parent)
chain: MNCCIGLGEKARGSHRASYPSLSALFTEASILGFGSFAVKAQWTEDCRKSTYPPSGPTYRGAVPWYTINLDLPPYKRWHELMLDKAPVLKVIVNSLKNMINTFVPSGKIMQVVDEKLPGLLGNFPGPFEEEMKGIAAVTDIPLGEIISFNIFYELFTICTSIVAEDKKGHLIHGRNMDFGVFLGWNINNDTWVITEQLKPLTVNLDFQRNNKTVFKASSFAGYVGMLTGFKPGLFSLTLNERFSINGGYLGILEWILGKKDVMWIGFLTRTVLENSTSYEEAKNLLTKTKILAPAYFILGGNQSGEGCVITRDRKESLDVYELDAKQGRWYVVQTNYDRWKHPFFLDDRRTPAKMCLNRTSQENISFETMYDVLSTKPVLNKLTVYTTLIDVTKGQFETYLRDCPDPCIGW

The variants in this experiment derive from B1. The settings on record: with stf1_human NR5A1, Q13285.
Chain of stf1_human NR5A1, Q13285 (Q13285 whole entry): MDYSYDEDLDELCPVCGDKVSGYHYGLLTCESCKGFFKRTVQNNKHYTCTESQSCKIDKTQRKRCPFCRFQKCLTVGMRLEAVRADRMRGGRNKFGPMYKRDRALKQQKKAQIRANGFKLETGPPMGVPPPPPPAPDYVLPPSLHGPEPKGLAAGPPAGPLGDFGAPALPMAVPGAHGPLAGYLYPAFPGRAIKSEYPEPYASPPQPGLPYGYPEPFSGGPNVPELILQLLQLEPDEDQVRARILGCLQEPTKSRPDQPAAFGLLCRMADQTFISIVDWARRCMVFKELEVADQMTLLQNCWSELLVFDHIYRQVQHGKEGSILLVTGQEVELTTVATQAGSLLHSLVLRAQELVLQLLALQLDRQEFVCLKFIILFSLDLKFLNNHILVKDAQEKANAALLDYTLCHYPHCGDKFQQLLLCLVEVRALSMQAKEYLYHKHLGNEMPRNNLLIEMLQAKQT
Regarding L22A;L25A, the “effect of a mutation on the interaction” value is reported as “disrupting interaction strength”.
